{
  "source": "the supplement of paper PMC12855868",
  "parents": {"B1": {"name": "library; numbered along this chain (parent)", "chain": "MAAAGGARLLRAASAVLGGPAGRWLHHAGSRAGSSGLLRNRGPGGSAEASRSLSVSARARSSSEDKITVHFINRDGETLTTKGKVGDSLLDVVVENNLDIDGFGACEGTLACSTCHLIFEDHIYEKLDAITDEENDMLDLAYGLTDRSRLGCQICLTKSMDNMTVRVPETVADARQSIDVGKTS"}},
  "variants_of": "B1",
  "test": "scaled log2 fold change in cell abundance, elesclomol vs control (0 = silent mean, 1 = nonsense mean) (scaled log2 ratio); higher = higher viability under elesclomol (loss of FDX1 cuproptosis function)",
  "details": "glucose 10 mM",
  "key": {"[1]": {"details": "with ABC1 FDX1 KO, elesclomol 5 nM, 14 days"}, "[2]": {"details": "with HEK293T FDX1 KO, elesclomol 40 nM, 11 days"}},
  "data": [
    {"variant": "MAAAGGARLLRAASAVLGGPAGRWLHHAGSRAGSSGLLRNRGPGGSAEASRSLSVSARARSSSEDKITVHFINRDGETLTTKGKVGDSLLDVVVENNLDIDGFGACEGTLACSTCHLIFEDHIYEKLDAITDEEVDMLDLAYGLTDRSRLGCQICLTKSMDNMTVRVPETVADARQSIDVGKTS", "note": "[N135V]", "values": [
      {"measurement": "scaled log2 fold change", "setting": "[1]", "value": 0.161},
      {"measurement": "scaled log2 fold change", "setting": "[2]", "value": 0.0375}
    ]},
    {"variant": "MAAAGGARLLRAASAVLGGPAGRWLHHAGSRAGSSGLLRNRGPGGSAEASRSLSVSARARSSSEDKITVHFINRDGETLTTKGKVGDSLLDVVVENNLDIDGFGACEGTLACSTCHLIFEDHIYEKLDAITDEEYDMLDLAYGLTDRSRLGCQICLTKSMDNMTVRVPETVADARQSIDVGKTS", "note": "[N135Y]", "values": [
      {"measurement": "scaled log2 fold change", "setting": "[1]", "value": 0.0894},
      {"measurement": "scaled log2 fold change", "setting": "[2]", "value": 0.75}
    ]},
    {"variant": "MAAAGGARLLRAASAVLGGPAGRWLHHAGSRAGSSGLLRNRGPGGSAEASRSLSVSARARSSSEDKITVHFINRDGETLTTKGKVGDSLLDVVVENNLDIDGFGACEGTLACSTCHLIFEDHIYEKLDAITDEETDMLDLAYGLTDRSRLGCQICLTKSMDNMTVRVPETVADARQSIDVGKTS", "note": "[N135T]", "values": [
      {"measurement": "scaled log2 fold change", "setting": "[1]", "value": -0.162},
      {"measurement": "scaled log2 fold change", "setting": "[2]", "value": -0.382}
    ]},
    {"variant": "MAAAGGARLLRAASAVLGGPAGRWLHHAGSRAGSSGLLRNRGPGGSAEASRSLSVSARARSSSEDKITVHFINRDGETLTTKGKVGDSLLDVVVENNLDIDGFGACEGTLACSTCHLIFEDHIYEKLDAITDEEWDMLDLAYGLTDRSRLGCQICLTKSMDNMTVRVPETVADARQSIDVGKTS", "note": "[N135W]", "values": [
      {"measurement": "scaled log2 fold change", "setting": "[1]", "value": -0.118},
      {"measurement": "scaled log2 fold change", "setting": "[2]", "value": 0.554}
    ]},
    {"variant": "MAAAGGARLLRAASAVLGGPAGRWLHHAGSRAGSSGLLRNRGPGGSAEASRSLSVSARARSSSEDKITVHFINRDGETLTTKGKVGDSLLDVVVENNLDIDGFGACEGTLACSTCHLIFEDHIYEKLDAITDEENFMLDLAYGLTDRSRLGCQICLTKSMDNMTVRVPETVADARQSIDVGKTS", "note": "[D136F]", "values": [
      {"measurement": "scaled log2 fold change", "setting": "[1]", "value": 0.493},
      {"measurement": "scaled log2 fold change", "setting": "[2]", "value": -0.85}
    ]},
    {"variant": "MAAAGGARLLRAASAVLGGPAGRWLHHAGSRAGSSGLLRNRGPGGSAEASRSLSVSARARSSSEDKITVHFINRDGETLTTKGKVGDSLLDVVVENNLDIDGFGACEGTLACSTCHLIFEDHIYEKLDAITDEENMMLDLAYGLTDRSRLGCQICLTKSMDNMTVRVPETVADARQSIDVGKTS", "note": "[D136M]", "values": [
      {"measurement": "scaled log2 fold change", "setting": "[1]", "value": 0.136},
      {"measurement": "scaled log2 fold change", "setting": "[2]", "value": -0.421}
    ]},
    {"variant": "MAAAGGARLLRAASAVLGGPAGRWLHHAGSRAGSSGLLRNRGPGGSAEASRSLSVSARARSSSEDKITVHFINRDGETLTTKGKVGDSLLDVVVENNLDIDGFGACEGTLACSTCHLIFEDHIYEKLDAITDEENGMLDLAYGLTDRSRLGCQICLTKSMDNMTVRVPETVADARQSIDVGKTS", "note": "[D136G]", "values": [
      {"measurement": "scaled log2 fold change", "setting": "[1]", "value": 0.589},
      {"measurement": "scaled log2 fold change", "setting": "[2]", "value": 0.805}
    ]},
    {"variant": "MAAAGGARLLRAASAVLGGPAGRWLHHAGSRAGSSGLLRNRGPGGSAEASRSLSVSARARSSSEDKITVHFINRDGETLTTKGKVGDSLLDVVVENNLDIDGFGACEGTLACSTCHLIFEDHIYEKLDAITDEENLMLDLAYGLTDRSRLGCQICLTKSMDNMTVRVPETVADARQSIDVGKTS", "note": "[D136L]", "values": [
      {"measurement": "scaled log2 fold change", "setting": "[1]", "value": 0.751},
      {"measurement": "scaled log2 fold change", "setting": "[2]", "value": 0.113}
    ]},
    {"variant": "MAAAGGARLLRAASAVLGGPAGRWLHHAGSRAGSSGLLRNRGPGGSAEASRSLSVSARARSSSEDKITVHFINRDGETLTTKGKVGDSLLDVVVENNLDIDGFGACEGTLACSTCHLIFEDHIYEKLDAITDEENAMLDLAYGLTDRSRLGCQICLTKSMDNMTVRVPETVADARQSIDVGKTS", "note": "[D136A]", "values": [
      {"measurement": "scaled log2 fold change", "setting": "[1]", "value": 0.243},
      {"measurement": "scaled log2 fold change", "setting": "[2]", "value": -0.0274}
    ]},
    {"variant": "MAAAGGARLLRAASAVLGGPAGRWLHHAGSRAGSSGLLRNRGPGGSAEASRSLSVSARARSSSEDKITVHFINRDGETLTTKGKVGDSLLDVVVENNLDIDGFGACEGTLACSTCHLIFEDHIYEKLDAITDEENNMLDLAYGLTDRSRLGCQICLTKSMDNMTVRVPETVADARQSIDVGKTS", "note": "[D136N]", "values": [
      {"measurement": "scaled log2 fold change", "setting": "[1]", "value": 0.198},
      {"measurement": "scaled log2 fold change", "setting": "[2]", "value": -0.651}
    ]},
    {"variant": "MAAAGGARLLRAASAVLGGPAGRWLHHAGSRAGSSGLLRNRGPGGSAEASRSLSVSARARSSSEDKITVHFINRDGETLTTKGKVGDSLLDVVVENNLDIDGFGACEGTLACSTCHLIFEDHIYEKLDAITDEENKMLDLAYGLTDRSRLGCQICLTKSMDNMTVRVPETVADARQSIDVGKTS", "note": "[D136K]", "values": [
      {"measurement": "scaled log2 fold change", "setting": "[1]", "value": 0.913},
      {"measurement": "scaled log2 fold change", "setting": "[2]", "value": 0.124}
    ]},
    {"variant": "MAAAGGARLLRAASAVLGGPAGRWLHHAGSRAGSSGLLRNRGPGGSAEASRSLSVSARARSSSEDKITVHFINRDGETLTTKGKVGDSLLDVVVENNLDIDGFGACEGTLACSTCHLIFEDHIYEKLDAITDEENIMLDLAYGLTDRSRLGCQICLTKSMDNMTVRVPETVADARQSIDVGKTS", "note": "[D136I]", "values": [
      {"measurement": "scaled log2 fold change", "setting": "[1]", "value": 0.422},
      {"measurement": "scaled log2 fold change", "setting": "[2]", "value": -0.019}
    ]},
    {"variant": "MAAAGGARLLRAASAVLGGPAGRWLHHAGSRAGSSGLLRNRGPGGSAEASRSLSVSARARSSSEDKITVHFINRDGETLTTKGKVGDSLLDVVVENNLDIDGFGACEGTLACSTCHLIFEDHIYEKLDAITDEENHMLDLAYGLTDRSRLGCQICLTKSMDNMTVRVPETVADARQSIDVGKTS", "note": "[D136H]", "values": [
      {"measurement": "scaled log2 fold change", "setting": "[1]", "value": 0.556},
      {"measurement": "scaled log2 fold change", "setting": "[2]", "value": 0.766}
    ]},
    {"variant": "MAAAGGARLLRAASAVLGGPAGRWLHHAGSRAGSSGLLRNRGPGGSAEASRSLSVSARARSSSEDKITVHFINRDGETLTTKGKVGDSLLDVVVENNLDIDGFGACEGTLACSTCHLIFEDHIYEKLDAITDEENPMLDLAYGLTDRSRLGCQICLTKSMDNMTVRVPETVADARQSIDVGKTS", "note": "[D136P]", "values": [
      {"measurement": "scaled log2 fold change", "setting": "[1]", "value": 0.922},
      {"measurement": "scaled log2 fold change", "setting": "[2]", "value": 1.19}
    ]},
    {"variant": "MAAAGGARLLRAASAVLGGPAGRWLHHAGSRAGSSGLLRNRGPGGSAEASRSLSVSARARSSSEDKITVHFINRDGETLTTKGKVGDSLLDVVVENNLDIDGFGACEGTLACSTCHLIFEDHIYEKLDAITDEENEMLDLAYGLTDRSRLGCQICLTKSMDNMTVRVPETVADARQSIDVGKTS", "note": "[D136E]", "values": [
      {"measurement": "scaled log2 fold change", "setting": "[1]", "value": 0.196},
      {"measurement": "scaled log2 fold change", "setting": "[2]", "value": 0.183}
    ]},
    {"variant": "MAAAGGARLLRAASAVLGGPAGRWLHHAGSRAGSSGLLRNRGPGGSAEASRSLSVSARARSSSEDKITVHFINRDGETLTTKGKVGDSLLDVVVENNLDIDGFGACEGTLACSTCHLIFEDHIYEKLDAITDEENCMLDLAYGLTDRSRLGCQICLTKSMDNMTVRVPETVADARQSIDVGKTS", "note": "[D136C]", "values": [
      {"measurement": "scaled log2 fold change", "setting": "[1]", "value": 0.0368},
      {"measurement": "scaled log2 fold change", "setting": "[2]", "value": 0.938}
    ]}
  ]
}
